42 molecules from US20150246136A1 (Bayer, published 2015) can be followed below.

Where “and” joins values, the source holds several entries; their conditions need not be identical. Identical values can stand only once.

For the experiment, the target named is Mesothelin (SwissProt reference Q13421-3) (Homo sapiens, UniProt Q13421 37-622). Nature of the experiment: cell-based or functional assay.

B1: Example 56, conjugate of anti-mesothelin antibody MF-Ta (antibody, human IgG1, lambda, V domains shown)
VH: QVELVQSGAEVKKPGESLKISCKGSGYSFTSYWIGWVRQAPGKGLEWMGIIDPGDSRTRYSPSFQGQVTISADKSISTAYLQWSSLKASDTAMYYCARGQLYGGTYMDGWGQGTLVTVSS
VL: DIALTQPASVSGSPGQSITISCTGTSSDIGGYNSVSWYQQHPGKAPKLMIYGVNNRPSGVSNRFSGSKSGNTASLTISGLQAEDEADYYCSSYDIESATPVFGGGTKLTVLG
modifications: toxophore-linker on Cys sulfur, sites not given
For B1, the “IC50 (nM), HT29 meso+ cells, MTT proliferation assay” value (“IC50 (nM), HT29 meso+ cells” below) was determined as 0.17 nM.

B2: Example 78, conjugate of anti-mesothelin antibody MF-Ta (antibody, human IgG1, lambda, V domains shown)
VH: B1 VH
VL: B1 VL
modifications: toxophore-linker on Cys sulfur, sites not given
B2: the “IC50 (nM), HT29 meso+ cells” value stood at 1.1 nM.

B3: Example 70, conjugate of anti-mesothelin antibody MF-Ta (antibody, human IgG1, lambda, V domains shown)
VH: B1 VH
VL: B1 VL
modifications: toxophore-linker on Cys sulfur, sites not given
B3: the “IC50 (nM), HT29 meso+ cells” value was determined as 0.02 nM.

B4: Example 89, conjugate of anti-mesothelin antibody MF-Ta (antibody, human IgG1, lambda, V domains shown)
VH: B1 VH
VL: B1 VL
modifications: toxophore-linker on Cys sulfur, sites not given
For the molecule B4, the “IC50 (nM), HT29 meso+ cells” value was 0.06 nM.

B5: Example 61, conjugate of anti-mesothelin antibody MF-Ta (antibody, human IgG1, lambda, V domains shown)
VH: B1 VH
VL: B1 VL
modifications: toxophore-linker on Cys sulfur, sites not given
As for B5, the “IC50 (nM), HT29 meso+ cells” value stood at 0.019 nM.

B6: Example 57, conjugate of anti-mesothelin antibody MF-Ta (antibody, human IgG1, lambda, V domains shown)
VH: B1 VH
VL: B1 VL
modifications: toxophore-linker on Cys sulfur, sites not given
Regarding B6, the “IC50 (nM), HT29 meso+ cells” value turned out to be 0.4 nM.

B7: Example 80, conjugate of anti-mesothelin antibody MF-Ta (antibody, human IgG1, lambda, V domains shown)
VH: B1 VH
VL: B1 VL
modifications: toxophore-linker on Cys sulfur, sites not given
On to B7, for which the “IC50 (nM), HT29 meso+ cells” value turned out to be 4.4 nM.

B8: Example 58, conjugate of anti-mesothelin antibody MF-Ta (antibody, human IgG1, lambda, V domains shown)
VH: B1 VH
VL: B1 VL
modifications: toxophore-linker on Lys NH, sites not given
For B8, the “IC50 (nM), HT29 meso+ cells” value came to 5 nM.

B9: Example 60, conjugate of anti-mesothelin antibody MF-Ta (antibody, human IgG1, lambda, V domains shown)
VH: B1 VH
VL: B1 VL
modifications: toxophore-linker on Cys sulfur, sites not given
For B9, the “IC50 (nM), HT29 meso+ cells” value is 0.06 nM and 0.16 nM.

B10: Example 74, conjugate of anti-mesothelin antibody MF-Ta (antibody, human IgG1, lambda, V domains shown)
VH: B1 VH
VL: B1 VL
modifications: toxophore-linker on Cys sulfur, sites not given
Regarding B10, the “IC50 (nM), HT29 meso+ cells” value came out at 9 nM.

B11: Example 91, conjugate of anti-mesothelin antibody MF-Ta (antibody, human IgG1, lambda, V domains shown)
VH: B1 VH
VL: B1 VL
modifications: toxophore-linker on Cys sulfur, sites not given
Take B11: the “IC50 (nM), HT29 meso+ cells” value is 0.35 nM.

B12: Example 81, conjugate of anti-mesothelin antibody MF-Ta (antibody, human IgG1, lambda, V domains shown)
VH: B1 VH
VL: B1 VL
modifications: toxophore-linker on Cys sulfur, sites not given
For B12, the “IC50 (nM), HT29 meso+ cells” value worked out at 0.02 nM.

B13: Example 64, conjugate of anti-mesothelin antibody MF-Ta (antibody, human IgG1, lambda, V domains shown)
VH: B1 VH
VL: B1 VL
modifications: toxophore-linker on Cys sulfur, sites not given
As to B13, the “IC50 (nM), HT29 meso+ cells” value was found to be 0.11 nM.

B14: Example 83, conjugate of anti-mesothelin antibody MF-Ta (antibody, human IgG1, lambda, V domains shown)
VH: B1 VH
VL: B1 VL
modifications: toxophore-linker on Cys sulfur, sites not given
For the molecule B14, the “IC50 (nM), HT29 meso+ cells” value is 0.3 nM.

B15: Example 66, conjugate of anti-mesothelin antibody MF-Ta (antibody, human IgG1, lambda, V domains shown)
VH: B1 VH
VL: B1 VL
modifications: toxophore-linker on Cys sulfur, sites not given
Regarding B15, the “IC50 (nM), HT29 meso+ cells” value was 1.5 nM.

B16: Example 75, conjugate of anti-mesothelin antibody MF-Ta (antibody, human IgG1, lambda, V domains shown)
VH: B1 VH
VL: B1 VL
modifications: toxophore-linker on Lys NH, sites not given
For B16, the “IC50 (nM), HT29 meso+ cells” value worked out at 0.2 nM.

B17: Example 79, conjugate of anti-mesothelin antibody MF-Ta (antibody, human IgG1, lambda, V domains shown)
VH: B1 VH
VL: B1 VL
modifications: toxophore-linker on Cys sulfur, sites not given
As for B17, the “IC50 (nM), HT29 meso+ cells” value came to 0.5 nM.

B18: Example 77, conjugate of anti-mesothelin antibody MF-Ta (antibody, human IgG1, lambda, V domains shown)
VH: B1 VH
VL: B1 VL
modifications: toxophore-linker on Cys sulfur, sites not given
In the case of B18, the “IC50 (nM), HT29 meso+ cells” value came to 0.8 nM.

B19: Example 84, conjugate of anti-mesothelin antibody MF-Ta (antibody, human IgG1, lambda, V domains shown)
VH: B1 VH
VL: B1 VL
modifications: toxophore-linker on Lys NH, sites not given
Consider B19, for which the “IC50 (nM), HT29 meso+ cells” value amounted to 6 nM.

B20: Example 65, conjugate of anti-mesothelin antibody MF-Ta (antibody, human IgG1, lambda, V domains shown)
VH: B1 VH
VL: B1 VL
modifications: toxophore-linker on Cys sulfur, sites not given
On to B20, for which the “IC50 (nM), HT29 meso+ cells” value is 0.14 nM.

B21: Example 71, conjugate of anti-mesothelin antibody MF-Ta (antibody, human IgG1, lambda, V domains shown)
VH: B1 VH
VL: B1 VL
modifications: toxophore-linker on Cys sulfur, sites not given
Turning to B21, the “IC50 (nM), HT29 meso+ cells” value was 0.6 nM.

B22: Example 95, conjugate of anti-mesothelin antibody MF-Ta (antibody, human IgG1, lambda, V domains shown)
VH: B1 VH
VL: B1 VL
modifications: toxophore-linker on Cys sulfur, sites not given
On to B22, for which the “IC50 (nM), HT29 meso+ cells” value is 0.013 nM.

B23: Example 62, conjugate of anti-mesothelin antibody MF-Ta (antibody, human IgG1, lambda, V domains shown)
VH: B1 VH
VL: B1 VL
modifications: toxophore-linker on Cys sulfur, sites not given
For B23, the “IC50 (nM), HT29 meso+ cells” value was determined as 20 nM.

B24: Example 63, conjugate of anti-mesothelin antibody MF-Ta (antibody, human IgG1, lambda, V domains shown)
VH: B1 VH
VL: B1 VL
modifications: toxophore-linker on Cys sulfur, sites not given
Consider B24, for which the “IC50 (nM), HT29 meso+ cells” value worked out at 0.03 nM.

B25: Example 82, conjugate of anti-mesothelin antibody MF-Ta (antibody, human IgG1, lambda, V domains shown)
VH: B1 VH
VL: B1 VL
modifications: toxophore-linker on Cys sulfur, sites not given
B25: the “IC50 (nM), HT29 meso+ cells” value amounted to 24 nM.

B26: Example 94, conjugate of anti-mesothelin antibody MF-Ta (antibody, human IgG1, lambda, V domains shown)
VH: B1 VH
VL: B1 VL
modifications: toxophore-linker on Cys sulfur, sites not given
For the molecule B26, the “IC50 (nM), HT29 meso+ cells” value was found to be 0.6 nM.

B27: Example 92, conjugate of anti-mesothelin antibody MF-Ta (antibody, human IgG1, lambda, V domains shown)
VH: B1 VH
VL: B1 VL
modifications: toxophore-linker on Cys sulfur, sites not given
Take B27: the “IC50 (nM), HT29 meso+ cells” value came to 38 nM.

B28: Example 59, conjugate of anti-mesothelin antibody MF-Ta (antibody, human IgG1, lambda, V domains shown)
VH: B1 VH
VL: B1 VL
modifications: toxophore-linker on Lys NH, sites not given
B28: the “IC50 (nM), HT29 meso+ cells” value stood at 1 nM.

B29: Example 85, conjugate of anti-mesothelin antibody MF-Ta (antibody, human IgG1, lambda, V domains shown)
VH: B1 VH
VL: B1 VL
modifications: toxophore-linker on Cys sulfur, sites not given
As for B29, the “IC50 (nM), HT29 meso+ cells” value is 0.2 nM.

B30: Example 96, conjugate of anti-mesothelin antibody MF-Ta (antibody, human IgG1, lambda, V domains shown)
VH: B1 VH
VL: B1 VL
modifications: toxophore-linker on Cys sulfur, sites not given
On to B30, for which the “IC50 (nM), HT29 meso+ cells” value worked out at 25 nM.

B31: Example 86, conjugate of anti-mesothelin antibody MF-Ta (antibody, human IgG1, lambda, V domains shown)
VH: B1 VH
VL: B1 VL
modifications: toxophore-linker on Cys sulfur, sites not given
Regarding B31, the “IC50 (nM), HT29 meso+ cells” value worked out at 0.45 nM.

B32: Example 90, conjugate of anti-mesothelin antibody MF-Ta (antibody, human IgG1, lambda, V domains shown)
VH: B1 VH
VL: B1 VL
modifications: toxophore-linker on Cys sulfur, sites not given
For B32, the “IC50 (nM), HT29 meso+ cells” value is 2.6 nM.

B33: Example 73, conjugate of anti-mesothelin antibody MF-Ta (antibody, human IgG1, lambda, V domains shown)
VH: B1 VH
VL: B1 VL
modifications: toxophore-linker on Cys sulfur, sites not given
With B33, the “IC50 (nM), HT29 meso+ cells” value is 25 nM.

B34: Example 68, conjugate of anti-mesothelin antibody MF-Ta (antibody, human IgG1, lambda, V domains shown)
VH: B1 VH
VL: B1 VL
modifications: toxophore-linker on Cys sulfur, sites not given
On to B34, for which the “IC50 (nM), HT29 meso+ cells” value turned out to be 2 nM.

B35: Example 93, conjugate of anti-mesothelin antibody MF-Ta (antibody, human IgG1, lambda, V domains shown)
VH: B1 VH
VL: B1 VL
modifications: toxophore-linker on Lys NH, sites not given
Take B35: the “IC50 (nM), HT29 meso+ cells” value came to 52 nM.

B36: Example 69, conjugate of anti-mesothelin antibody MF-Ta (antibody, human IgG1, lambda, V domains shown)
VH: B1 VH
VL: B1 VL
modifications: toxophore-linker on Cys sulfur, sites not given
On to B36, for which the “IC50 (nM), HT29 meso+ cells” value came out at 0.07 nM.

B37: Example 88, conjugate of anti-mesothelin antibody MF-Ta (antibody, human IgG1, lambda, V domains shown)
VH: B1 VH
VL: B1 VL
modifications: toxophore-linker on Cys sulfur, sites not given
Take B37: the “IC50 (nM), HT29 meso+ cells” value came to 0.01 nM.

B38: Example 67, conjugate of anti-mesothelin antibody MF-Ta (antibody, human IgG1, lambda, V domains shown)
VH: B1 VH
VL: B1 VL
modifications: toxophore-linker on Cys sulfur, sites not given
As to B38, the “IC50 (nM), HT29 meso+ cells” value was 0.015 nM.

B39: Example 97, conjugate of anti-mesothelin antibody MF-Ta (antibody, human IgG1, lambda, V domains shown)
VH: B1 VH
VL: B1 VL
modifications: toxophore-linker on Cys sulfur, sites not given
In the case of B39, the “IC50 (nM), HT29 meso+ cells” value is 0.2 nM.

B40: Example 76, conjugate of anti-mesothelin antibody MF-Ta (antibody, human IgG1, lambda, V domains shown)
VH: B1 VH
VL: B1 VL
modifications: toxophore-linker on Cys sulfur, sites not given
On to B40, for which the “IC50 (nM), HT29 meso+ cells” value was 0.35 nM.

B41: Example 72, conjugate of anti-mesothelin antibody MF-Ta (antibody, human IgG1, lambda, V domains shown)
VH: B1 VH
VL: B1 VL
modifications: toxophore-linker on Cys sulfur, sites not given
As to B41, the “IC50 (nM), HT29 meso+ cells” value was 0.05 nM.

B42: Example 87, conjugate of anti-mesothelin antibody MF-Ta (antibody, human IgG1, lambda, V domains shown)
VH: B1 VH
VL: B1 VL
modifications: toxophore-linker on Lys NH, sites not given
Turning to B42, the “IC50 (nM), HT29 meso+ cells” value was determined as 0.9 nM.
